From IntAct's records for PubMed 11100732

B1: Autophagy-related protein 3 (Saccharomyces cerevisiae), P40344 (parent)
chain: MIRSTLSSWREYLTPITHKSTFLTTGQITPEEFVQAGDYLCHMFPTWKWNEESSDISYRDFLPKNKQFLIIRKVPCDKRAEQCVEVEGPDVIMKGFAEDGDEDDVLEYIGSETEHVQSTPAGGTKDSSIDDIDELIQDMEIKEEDENDDTEEFNAKGGLAKDMAQERYYDLYIAYSTSYRVPKMYIVGFNSNGSPLSPEQMFEDISADYRTKTATIEKLPFYKNSVLSVSIHPCKHANVMKILLDKVRVVRQRRRKELQEEQELDGVGDWEDLQDDIDDSLRVDQYLIVFLKFITSVTPSIQHDYTMEGW
partner: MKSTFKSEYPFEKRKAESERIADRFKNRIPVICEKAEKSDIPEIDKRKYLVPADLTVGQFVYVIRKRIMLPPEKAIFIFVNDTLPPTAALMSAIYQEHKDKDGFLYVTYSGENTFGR

Variants of: B1
Settings: with atg8_yeast ATG8, P38182

effect of a mutation on the interaction | Variant
disrupting interaction | C234S
disrupting interaction | C234A
